Measurements taken from publication PMC314469, “Protein Interaction Networks by Proteome Peptide Scanning” (PLoS Biology, 2004).

T1: amphyphisin SH3 (AMPH_HUMAN), P49418
T1 chain: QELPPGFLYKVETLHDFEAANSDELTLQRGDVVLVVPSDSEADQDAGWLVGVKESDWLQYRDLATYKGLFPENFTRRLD


Key:
[1] = molecular target: T1, amphyphisin SH3 (AMPH_HUMAN), P49418; assay: SPOT array
[2] = molecular target: endophilin SH3 (SH3G2_HUMAN), Q99962; assay: SPOT array

normalised SPOT signal, Boehringer light units (BLU); mean over the file's lines of this peptide [1]	normalised SPOT signal, Boehringer light units (BLU); mean over the file's lines of this peptide [2]	Binder
30.1	4.1	PHHELRRPVLQRQT [Q9H6E1 62-75]
25	523	PGPGPRRPPWEGAD [Q96Q04 1263-1277]
68.3	1930	PGPFPPRPPGPLGP [Q9BW18 356-370]
570	4460	PGGKPERPPKPGPP [P51511 339-353]
656	156	PGTGPWRPGRQRGA [Q9GZW5 233-246]
223	3750	PGTPPRRPASPSAL [O75833 33-46]
2130	360	PGNIPQRPDRLPMS [Q9P2I2 89-102]
44.4	711	PGRAPRRPLLEGGG [Q9H6A9 285-298]
853	1310	PGQGLRRPARPGPA [P78365 80-93]
504	15700	PGRRPGRPPKFIRL [Q9NQV6 314-328]
414	31.7	PGEHPGRPGRGGSV [Q13577 1110-1123]
81.5	1880	PKDYPLRPPKMKFI [Q99462 62-75]
8660	227	PGVEPKRPSRPINL [Q9UN16 222-235]
48.7	110	PIQNIKRPYPGEVS [Q9H7J0 315-328]
9310	13000	PHSAPLRPPRELHA [Q9NVV2 32-45]
31.8	171	PGAGLRRPTYTPPS [O15209 277-290]
35.3	587	PGTSPRRPSVVPSR [Q96D64 48-61]
38.7	32.6	PKERLRRPETSGIS [O75698 245-258]
48.3	22.8	PGSLPSKPPPGPVP [Q8TEP0 205-219]

More lines, now with the values behind:

Binder	normalised SPOT signal, Boehringer light units (BLU); mean over the file's lines of this peptide [1]	normalised SPOT signal, Boehringer light units (BLU); mean over the file's lines of this peptide [2]
PGLAPKRPLETGPR [Q96BF6 185-198]	31.4	1350
PFRALKRPLQFLGL [O00156 318-331]	28.1	63.7
PGPSLRRPSRELDA [Q9NTN9 19-32]	442	226
PGHSPRRPRPLGLS [Q16538 521-534]	45.1	2830
ARSYLRRPAVVYIG [O43188 617-630]	35.3	60.1
PHADPGRPERLVFK [Q9Y5X7 158-171]	169	8.4
PFHSLKRPRPPFAR [O75048 874-887]	65.6	228
PGSGPPRPSRRLLD [O15427 206-219]	748	2310
PGPPPGRPPGPPPG [Q9Y2W2 459-473]	33.4	924
PGDSPAKPPEGSAG [Q8WXD9 428-442]	52.2	72.5
PGQGPQRPRRPAKD [Q12984 75-88]	4690	5880
PGPSPARPPAKPPE [Q14184 97-111]	19.1	194
ARRPLARPIKRGDI [O94844 155-168]	227	265
PGPAPKRPRGGGAG [Q06587 167-180]	38.5	348
PGGSPRRPPALAGP [P58401 8-21]	46.4	241
ARRPPPRPHRRAET [Q9NQE0 211-224]	2030	2500
PKISPQKPPRKDME [AAM49716 571-585]	2910	487
PISVLRRPGANHEG [Q9Y2Z7 47-60]	46.1	90.8
PGPVPPRPPAAEPP [Q9H3S7 1093-1107]	50.3	331
PGFSLKRPRGLSRS [Q99640 37-50]	40.1	41.8
PKKPPVKPPTEPIG [Q9ULW0 418-432]	37.6	64.2
PHKRPRRPHQIADL [Q96FN8 185-198]	75.3	58.2
PGVPPARPPPLTKV [Q9HCH0 869-883]	807	10000
